In patent US20050032039A1 one finds reduction in HIV-1 envelope-specific CTL activity (PBMCs from LB as effector cells, E:T 25:1, 1:4 dilution of W6/32 hybridoma supernatant), specific lysis value with W6/32 (PBMCs from LB, E:T 25:1) and specific lysis value without W6/32 (PBMCs from LB, E:T 25:1) data, which are given here for one substance.

For this test, the target named is HLA class I. The experiment in a line: cell-based or functional assay.

Substance W6/32, the class I-specific antibody displayed a reduction in HIV-1 envelope-specific CTL activity (PBMCs from LB as effector cells, E:T 25:1, 1:4 dilution of W6/32 hybridoma supernatant) of 73%; a specific lysis value with W6/32 (PBMCs from LB, E:T 25:1) of 6.2%; a specific lysis value without W6/32 (PBMCs from LB, E:T 25:1) of 23.2%.
